Test results taken from US20230357370A1.

Tests used:
[1] = target: RSV F peptide 51-66 (respiratory syncytial virus, A2 strain)
[2] = target: RSV F peptides F85-93 and F249-258 (respiratory syncytial virus, A2 strain)

| Substance | CD4+ CD8- splenic T cells: % cytokine-positive, TNFa+ (intracellular cytokine immunofluorescence) [1] [%] | CD8+ CD4- splenic T cells: % cytokine-positive, IFNg+ (intracellular cytokine immunofluorescence) [2] [%] |
| --- | --- | --- |
| splenic T cells of unvaccinated BALB/c mice (cells without a defined receptor) | 0 | 0.01 |
| splenic T cells of BALB/c mice vaccinated with A317 RNA in liposomes RV01(01) (cells without a defined receptor) | 0.09 | 3.69 |
| splenic T cells of BALB/c mice vaccinated with A317 RNA formulated with CNE17 (cells without a defined receptor) | 0.05 | 1.25 |
| splenic T cells of BALB/c mice vaccinated with A317 RNA delivered using electroporation (cells without a defined receptor) | 0.05 | 0.85 |
| splenic T cells of BALB/c mice vaccinated with VRPs expressing RSV-F (cells without a defined receptor) | 0.1 | 3.48 |
| splenic T cells of BALB/c mice vaccinated with naked self-replicating RNA A317 (cells without a defined receptor) | 0.03 | 0.74 |
